In the DeepSol protein solubility set:

Assay: soluble on expression in E. coli; label from the status in PepcDB or PDB records

Sequence	soluble on expression in E. coli
MGSDKIHHHHHHMSRPKVIVTIAPTGGMASKQQNPHLPTQPEEIASDVYDCYNAGASVVAVHARRPDDGATCDAAIYRDINTRIRAKCDIVINNSTGGGVHGEMIGQASNGYWEILWEERLKGMDAGAELCTLDATTIIATFGGKELLMHTSPERSKHLAVEMKKRGIKPEWEVFSPTHIVQDVAALTAAGFDEEPFFINLVLGVHRNFQNAMPYSPRVLQSMVDLLPKGSIFCVSGIGPAQLPSAMNSLLLGGHVRVGLEDNLYYSAGELATNVQLVERVVRLVREMGYEPATPREAREIMGLPRSSGPRPDFAMQ	not soluble
MSLTGANDSNYDPFAGLSFRVGVAENKNTTFRNKMEDVHTYIANFAERVDWGYFAIFDGHAGKDTARWCGNNLHTLLEEEIDRNSDEGSPPPTPITGKDDLREDLYKCFVKADELIEKSGQGKSGCTAAVAVLRWESDNEEPVSHTKSQDGGKFDFKPTKNHKRLLYTSNVGDLRIVLCRAGQAYRLSYDHKATDTHEINRIEDNGGLVLKNRVNGVLAVTRSLGDTYMKLLVIGVPFTTATEITADDEFIIIACDGLWDVVSDKHACKLAAESFKQGYSPLQVAKKLCQFAIELSTTDNVTVMVVQLDNDVFSEGHHHHHH	soluble
MEKVHYAAIDVGSNAVRLLIKCVNSEGMEEPLSKVLIMRVPIRLGEDSFTKGYIGEEKTDNMVRLMRAYYEMMQIYRVKDYRACATSAMRDASNAEAVIAQIREKTGIHIDIIDGDEEARLVSDNHIEQIISDGGNYIYLDVGGGSTELTIPAAEIFLEVADITGAKTIIAPIVGLADGIIEDLYIRHQSQPSLEHHHHHH	soluble
MGQERLDNANPTLFDSKPRHRPVTGTERDESVEDPIDSWEIFDLIRDINDPEHPYTLEQLNVVQEELIKVFIDEEETFVKVNFTPTIPHCSMATLIGLAIRVKLLRSLHPKVKVSVSITPGSHSTEESINRQLADKERVAAAMENQGLMHAVNECLRVPE	not soluble
MGSDKIHHHHHHMATELKTFTDSQFIGKPVLADIEFIPHLEKINDFAATNGLKIFVTSSARPWGVPVGGAIVSPAKMSNHLIGHAIDMNIQIGGKLYTSNELGDFNSLPPPIKAFITTIRNHPVLRWGGDFGDPVHIDDGLNLHNPNLWKDKFPIIQSELTGLTQPGIRAVNSPRLLFLTTPLMKGDDIKVVQEKLIGKGFDLGITGADGFFGQATANAVIKFQDQEDLDPVDGIVGDKTKKALGL	not soluble
MGHHHHHHSHMASETHNVKKRNFCNKIEDHFIDLPRKKISNFTNKNMKEVKKSPKQLAAYINRTVGQTVKSPDKLRKVIYRRKKVHHPFPNPCYRKKQSPGSGGCDMANKENELACAGHLPEKLHHDSRTYLVNSSDSGSSQTESPSSKYSGFFSEVSQDHETMAQVLFSRNMRLNVALTFWRKRSISELVAYLLRIEDLGVVVDCLPVLTNCLQEEKQYISLGCCVDLLPLVKSLLKSKFEEYVIVGLNWLQAVIKRWWSELSSKTEIINDGNIQILKQQLSGLWEQENHLTLVPGYTGNIAKDVDAYLLQLH	not soluble
MGSSHHHHHHMKKARMTVDKDYKIAEIDKRIYGSFVEHLGRAVYDGLYQPGNSKSDEDGFRKDVIELVKELNVPIIRYPGGNFVSNYFWEDGVGPVEDRPRRLDLAWKSIEPNQVGINEFAKWCKKVNAEIMMAVNLGTRGISDACNLLEYCNHPGGSKYSDMRIKHGVKEPHNIKVWCLGNAMDGPWQVGHKTMDEYGRIAEETARAMKMIDPSIELVACGSSSKDMPTFPQWEATVLDYAYDYVDYISLHQYYGNKENDTADFLAKSDDLDDFIRSVIATCDYIKAKKRSKKDIYLSFDEWNVWYHSNNEDANIMQNEPWRIAPPLLEDIYTFEDALLVGLMLITLMKHADRIKIACLAQLINVIAPIVTERNGGAAWRQTIFYPFMHASKYGRGIVLQPVINSPLHDTSKHEDVTDIESVAIYNEEKEEVTIFAVNRNIHEDIVLVSDVRGMKDYRLLEHIVLEHQDLKIRNSVNGEEVYPKNSDKSSFDDGILTSMLRRASWNVIRIGK	soluble
MSLKGRPIKEFSLVMDLSQAKKGADKMGYMEDLRKRVGTRPLILPASVVIILNEQDEILLQKRLDGRWGLPGGLMELGESFEETAKREILEETGLTIKNVTFLDVFSGKDLYVKVENGDEFYAVTALFMTREVAGGIQMDPRESLDLQYIALDQFPPNVTRTSKIFLDRFMELKEGHHHHHH	soluble
MPAHSLFSLSVSAALLLSAVPLPAQSAGWKPAEQIKTYAISGNTGGGLYQSIGERGPTAGVQAIAHTTFKLTWRRDYRPQPDGACVLVTARPNLTIIYTWPKAPSNLPPAVAASWKTFISGVETHERVHGEHILDMVKKIEAFSTGLRAENDPKCQKVRVVLQQRLGELSNEQRQRGRDFDRDELSPGGRVHQLILTLANGP	soluble
MASKTIIVMSDSHGDRDIVQAIKDKYLGQVDAIFHNGDSELNSSDPIWAGIYVVGGNCDYDTGYPDRLVTQLGTVTIAQTHGHLYHINFTWDKLDYFAQEVVADICLYGHLHRPAAWQVGQTLFMNPGSVTQPRGEINEKLYARVELTDTQIKVDYFTRDHKLYPSLSKEFKR	not soluble
MAYWLLKSEPQVYGIEDLEREGRAIWDGVRNYQARNYLMQMKEGDLCFFYHSGTTPPGIAGRCRVVRTLLPDPTQFDPESPYYDPKATPEKPRWYTVEVAFVEKWPLVPLAELKALFPPDHPLVKRGNRLSVMPVPPEVAEALIVRRGSR	soluble
MKKILLLNGPNLNMLGKREPHIYGSQTLSDIEQHLQQSAQAQGYELDYFQANGEESLINRIHQAFQNTDFIIINPGAFTHTSVAIRDALLAVSIPFIEVHLSNVHAREPFRHHSYLSDVAKGVICGLGAKGYDYALDFAISELQKIQLGEMMNG	soluble
TSEEYYKRKKQIKKLMSDQYAFLDLHGFTLHEDLYFEGIYEGFFFRVCPATEYIKKGYAGKKAIEYVIIESFYRFASEATDMDREVKMSGEYNFGDVHFENHCAGFVPKDWKNPDFKANFDALITIFEREGLLPITKNDWESTFGQHSKKAKDASRKNPQR	not soluble
MSLSRKRKSYSAEFKTRVVLELLGGEETVAQIASKYEITPKSLIDWKKQFLENASLVFDVGSATKAYKDEIEELKTENDALAKKLGKTTIERDWAVGKLKSLGLSNKKDLVTPKLKNLSMARQCEIIDLNRSTLYYEPKPISDNDLKIMKRIDEIYTDISSTYGYRFMHRQLLEDGFSIGVNKVNKLMNTMGIQAIFPKKKRHTSIKNYKHKIYPYLLRELEINRANQVWSGDITYIPIKGGFVYLCAIIDWHSKTILSWKISTTMDTSLVTDVLKEAIEKYDIPVIFNSDQGSQYTSHEHTELLKKHNIQISMNGKGRSIDNIAIERFFRTLKYDEIYINEYSSISDLRFKVSRYINFYNHNRFHSALNYQKPMNVYLEGLKNVAEGHHHHHH	not soluble
MTATPVLALSEFQGAPAPIAGEQNAAPGDEAEEAAPEERTPLEIPMPDPLVDRTAVELKDDEIAAPDVVEPVEVLTDVSKIPVPVARMRELIVEAAASGDIERLRPLLGKGPTQTQVTATAGEDDPIAALKSLSGDQDGIEILAILLDVMSTGFVLADKGTPEEAYVWPYFAEKPLSSLTAPEKVDLFRLVTAGDFAGMEEFGTYNFYRVGITPDGKWKFFVAGD	not soluble
MSLAYKPDDAAPFRSVTRQVLFSDLRLGCEWRYFEVAEGGYSTLERHQHVHATMIHRGRGQCLVGDVISDVAVGDLVFIPPMTWHQFRANAGDVLGFLCLVNADRDREGHHHHHH	not soluble
MSSKNSLSDKIKITFQYIMPKHAISRLVGKLAAAKMGWLTTKLISMFIKAYGINMNEAKLKKASDFDTFNNFFTRELEEGARIIDNDENTICYPVDGAISQQGDIIDGQLIQAKGFNYSVTSLLGGDEKTAAPFQGGKFSCIYLAPKDYHRIHMPMAATLREMIYVPGELFSVNPLTAQNVPDLFARNERVVAIFDTEMGELAMVLVGATIVASIETTWAGTITPPAGKDIFRWQYPKDGADAITFEKGDEMGRFKLGSTVVSTFAPNMISEFATDAGPGTVTRLGEIYAALDKSASLEHHHHHH	not soluble
MSLSEAGHKFLAKLGKKRLRPGGKRATDWLIAEGGFSKEKRILEVACNRGTTAIELAQRFGCKITAVDMDAQALEVAKKSAGTAGVAHLISFERANAMKLPYQDASFDIVINEAMLTMQADQAKKKCVMEYLRVLKPGGLLLTHDVLLKEAKESIRQELSQAIHVNVGPLTQDGWEQVMIESGYCDVKALTGEMTLMKLSGMIYDEGLLGTLKICVNACKKENRKQFLTMYKMFAKNKQKLGFIAMASYKSSKREGHHHHHH	not soluble
MQKQRMSGQNQKTDKRIAWPIIIMNFTGVYDYEAFARNNKFIWLDCRHLYGTDGYCDREGALALKGMIADYPAEGVHFIDSGNYHYLTKFWTDKLETPFSLIVFDHHPDMQPPLFDNILSCGSWVKDILDHNNNCKKVIIVGASDKLIQAVPKGYERQVRFYSETTLMHEEGWQNFSSGHINGPVYISIDKDVLKPASAATNWDQGSLSLWELEKLLAVILQKEQVVGIDICGECSTTLNLFEEKRETVMDSQANKELLRFIRSSSGLQ	not soluble
GSHMESGYAQNGDLEDAELDDYSFSCYSQLEVNGSQHSLTCAFEDPDVNTTNLEFEICGALVEVKCLNFRKLQEIYFIETKKFLLIGKSNICVKVGEKSLTCKKIDLTTIVKPEAPFDLSVVYREGANDFVVTFNTSHLQKKYVKVLMHDVAYRQEKDENKWTHVNLSSTKLTLLQRKLQPAAMYEIKVRSIPDHYFKGFWSEWSPSYYFRTPEINNSSGEMD	soluble
MGHHHHHHSHMTNQNVLLNISGVKFVLRIPNAVNLSLINREYEAFNNAQAYRAGLNVETPVLDAKSGVKLTRYLENSNTLSQIQLNEQSCLSQVVNNLYRLHNSEFVFRNVFSVFDEFRQYFSLLENKSAFYQADSRMDKLSAVFWQFEEINKEVILRPCHNDLVPENMLLQDDRLFFIDWEYSGLNDPLFDIATIIEEAHLSKEAADFLLETYCNQTNKYHKTEFQIAHKRLKIHRFCQNVLWFLWTKVKEEHGENFGDYALKRLDAAFKLLEELP	soluble
MEVDCRVISRGKGRGPVLVSTEPLSFLGGVDPGTGRVIDQKHPLHGRSIRGKVLLIPGGKGSTVGSYVIFQMAKNETAPAAIICLNAEPIIATGAIMAGIPMVDRPSEDLLGLLEDSMEVEVDADEGKIRF	soluble
MVKETKLYDLLGVSPSANEQELKKGYRKAALKYHPDKPTGDTEKFKEISEAFEILNDPQKREIYDQYGLEAARSGGPSFGPGGPGGAGG	soluble
MSLGAMPTVRDLRLIPFRIPLKAPLRWGKSSELAALEHALLEVELSDGSIGRAEVAIRPTIYGETLGSVRAGLEYLRPRLLGLEADDQEGIRAVLEAFPFNFGLKGALDTALWEAWARSEGEELYQVLKPAKHRVRVAYILGLGEEDEVLEDARMAFGAGVRVFKVKVGRDLEADTRRILRLKEAFPEAELYADANESLPPKEAERYLLAWKELGLRYVEEPLPVEEVEARRALREKGILSLIADDAAMTPKDLKRELALNTFDVLNLKPARTGVTWTLEMLALARERGKKAMVGSQAQSAFGAYQSALLAFQQGVTEPCELAFHLKAEGGFFPFPPFREGWLYWEDLVEARFDEEAFARYALKEAEGHHHHHH	soluble
MNLEKINELTAQDMAGVNATILEQLNSDVQLINQLGYYIISGGGKRIRPMIAVLAARAVGYQGNAHVTIAALIEFIHTATLLHDDVVDESDMRRGKATANAAFGNAASVLVGDFIYTRAFQMMTSLGSLKVLEVMSEAVNVIAEGEVLQLMNVNDPDITEENYMRVIYSKTARLFEAAAQCSGILAGCTPEQEKGLQDYGRYLGTAFQLIDDLLDYSADGEHLGKNVGDDLNEGKPTLPLLHAMRHGTPEQSAMIRTAIEQGNGRHLLEPVLEAMTTCGSLEWTRQRAEEEADKAISALQILPDTPWREALIGLAHIAVQRDR	not soluble
